Experimental data taken from the nanobody polyreactivity screen of Harvey et al. (2022).

Assay: yeast display, Sf9 membrane polyspecificity reagent, FACS + sequencing; frameworks hold sequencing errors
Summary of the method: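 Galactose induction of a Saccharomyces cerevisiae BJ5465 synthetic nanobody display library ran 36–48 hours. The cells were then stained for 1 hour at 4 °C with 10% biotinylated, detergent-solubilized Sf9 membrane reagent, pulled down on streptavidin microbeads and FACS-sorted into low and high (top ~1%) gates on expression and reagent-binding fluorescence. Labels for polyreactivity follow the gate of origin.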

Sequence	polyreactivity (PSR sort gate)
QVQLVESGGGLVQAGGSLRLSCAASGFTFPRYAMGWYRQAPGKERELVAVITRRGGSTYYADSVKGRFTISRDNAKNTVYLQMNSLKPEDTAVYYCAARQYSYNGGYGYWGQGTQVTVSS	high polyreactivity
QVQLVESGGGLVQAGGSLRLSCAASGSTFWTNAMGWYRQAPGKERELVAAISRSGGSTYYADSVKGRFTISRDNAKNTVYLQMNSLKPEDTAVYYCNAVLPYYRGSHYDYWGQGTQVTVSS	high polyreactivity
QVQLVESGGGLVQAGGSLRLSCAATGIIFDSYTMGWYRQAPGKERELVAAISVSGGSTYYADSVKVRFTISRDNAKNTVYLQMNSLKPEDTAVYYCAARGYAFNYMWPFNYWGQGTQVTVSS	low polyreactivity
QVQLQESGGGLVQAGGSLRLSCAASGTIFTARFMGWYRQAPGKERELVATITDGGNTNHADSVKGRFTISRDNAKNTVYLQMNSLKPEDAAVDYCAAGEVDNDTLLYWGQGSQVTVSS	low polyreactivity
QVQLVESGGGLVQAGGSLRLSCAASGSIIDQYVMGWYRQAPGKERELVADISIRGGSTYYADSVKGRFTISRDNAKNTVYFQMNSLKPEDTAVYYCNADEWWGYPWEEDDYWGQGTQVTVSS	low polyreactivity
QVQLVESGGGLVQAGGSLRLSCAGSGSIFGRYVVGWYRLAPGKEREFVAAITYSGSSTYYADSVKWRFTISRDNAKNTVYVQINSLKPEDTAVYYCNTYPRSYYWMGYWGQGTQVTVSS	high polyreactivity
QVQLVESGGGLVQAGGSLRLSCAASGIIFRGNAMGWYRQAHGKERELVAAISSAGSTNYADSVKGRFTISRDNAKNTVYLQMNSLKPEVTAVFYCAKGSIKYHVTLRGRGYYWGQGTQVTVSS	low polyreactivity
QVQLVESGGGLVQAGGSLRLSSAASGRIFRFYAMGWYRQAPGKERELVAAITSGGSTYYADSVKGRFTISRDNAKNTVYLQMNRLKPEDTAVYYCANYYWGQGTQVTVSS	low polyreactivity
QVQLVESGGGLVQAGGILRLSCAASGSTFGYYTMGWYRQAPGKEREFVAAITRRGGSTYYADSVKGRFTISRDNAKNTVYLQMNSLKPEDTAVYYCAAESRYQPHYGYWGQGTQVTVSS	high polyreactivity
QVQLVESGGGLVQAGGSLRLSCAASGFTFRTYAMGWYRQAPGKERELVADISGSGGSTYYADSVKGRFTISRDNAKNTVYLQMISLKPEDTAVYYCAATIYNWGYEREYWGQGTQVTVSS	high polyreactivity
QVQLVESGGGLVQAGGSLRLSCAASGSIFSSNAMGWYRQAPGKERELVAAITRGGRTTYADSVKGRFTISRDNAKNTVYLQMNSLKPEDTAVYYCAALHGRYPNRYDYWGQGTQVTVSS	low polyreactivity
QVQHVESGGGLVQAGGSLRLSCAASGSISPQNVMGWYRQAPGKERELVAAITGGGYTNYADSVKGRFTISRDNANNTVYLQMNSLKPEDTAVYYCNADYFQDRLDYWGQGTQVTVSS	low polyreactivity
QVQLVESGGGLVQAGGSLRLSCAASGFIFGQYAMGWYRQAPGKERELVATINRSGGSTYYADSVKGRFTISRDNAKNTVYLQMNSLKPEDTAVYYCAKGPRISSSLRYSAYWKMNYWGQGTQVTVSS	high polyreactivity
QVQLVESGGGLVQAGGSLRLSCAASGIIFRYNAMGWYRQAPGKERELVAAISTGGSTNYADSVKGRFTISRDNAKNTVYLQMNSLKPEDTAVYYCAADWHRAYGAYDYWGQGTQVTVSS	low polyreactivity
QVQLVESGGGLVQAGGSLRLSCAASGSTFTANAMGWYRQAPGKERELVAAITNSDGSTYYADSVKGRFTISRDNAKNTVYLQMNSLKPEDTAVYYCAAPADSGITQVWQALSDYWGQGTQVTVSS	low polyreactivity
QVQLVESGGGLVQAGGSLRLSCAASGSNFQYVYAMGWYRQAPGKERELVAAINGGSGSTYYADSVKGSFTISRDNAKNTVYLQMNSLKPEDTAVYYCNRDYEYPTYPHDYWGQGTQVTVSS	low polyreactivity

Sequence	polyreactivity (PSR sort gate)
QVQLVESGAGLVQAGGSLRLSCAAYGFIFRTNAMGWYRQAPGKERELVAAISNSGGRTYYADSVKGRFTLSRDNSKNTVYLQMNSLKPEDTAVYYCAAVLWYDIYYGGDYWGQGTQVTVSS	high polyreactivity
QVQLVESGGGLVQAGGSLRLSCAASGSIFTVYGMGWYRQAPGKERELVAAITCTSGGTYYADSVKGRFTISRDNAKNTVYLQMNSLKPEDTAVYYCNADGGSGAYLDLTITDYDYWGQGTQVTVSS	low polyreactivity
QVQLVESGGGLVQAGGSLRLSCAASGSIFRHNAMGWYRQAPGKERELVAAITSRGGSTYYADSVKGRFTISRDNAKNTVYLQMNSLKPEDTAVYYFAADYSSLSWGYDYWGQGTQVTVSS	high polyreactivity
QVQLVESGGGLVQAGGSLRLSCAASGITIGSNVMGWYRQAPGKERELVAAISQSGGRTYYADSVKGRFTISRDNAKNTVYLQMNSLKPEYTAVYYCAKRQRSFYGRPMGDYWGQGTQVTVSS	high polyreactivity
QVQLVESGGGLVQAGGSLRLSCAASGRIFVPNTMGWYRQAPGKERELVAAINTGGRTYYADSVKGRFTISRDNAKNTVYLQMNSLKPEDTAVYYCAVFSLKLGYIYDYWGQGTQVTVSS	high polyreactivity
QVQLVESGGGLVQAGGSLRLSCAASGSTFGVYAMGWYRQAPGKERELVAAISESGGNTYYADSVKGRFTISRDNAKNTVYLQLNSLKPEDPAVYYCNTDVVVVHYIQAYYWGQGTQVTVSS	low polyreactivity
QVQLVESGGGLVQAGGSLRLSCAASGRIFYGNTMGWYRPAPGKERELVAAITGSGTSTYYADSVKGRFTISRDNAKNTVYLQMNSLKPEDTAVYYCNADRPVYVDYINGGYGYWGQGTQVTVSS	low polyreactivity
QFQLVESGGGLVQAGGSLRLSCAASGSIFDGNAMGWYRQAPGKERELVAAISRRGGSTYYADSVKGRFTISRYNAKNTVYLQMNSLKPEDTAVYYCNAYLSYFDGNYWGQGTQVTVSS	high polyreactivity
QVQHVESGGGLVQAGASLRLSCAASGFTIRSYVRGWYRQAPGKEREIVAAISYRGGGTNYADSVKGRFTISRDNAKNTVYLHMNSLKPEDTAVYYCNARSGSSKSGYYYWGQGTQVTVSS	high polyreactivity
QVQLVESGGGLFQAGGSLRLSCAASGRTFYPNAMGWYRQAPGKERELVAAISWSVGTTHYADSVKGRFTISRDNAKNSVYLQMLSLKPEDTAVYYCNARWYYGVYDYWGQGTQVTVSS	low polyreactivity
QVQLVESGGGLVQAGGSLRLSCAASGGIFYLYAMGWYRQAPGKERELVAAISWSGTSTYYADSVKGRFTISRDNAKNTVYLQMNSLKPEDTAVYYCAADYERYYAKAINYDYWGQGTQVTVSS	low polyreactivity
QVQLVESGGGLVQAGGSLRLSCAASGRIFTRYTMGWYRQAPGKERQLVASITSSGSSSYYADSVKGRFTISRDYAKNTVYLQMNSLKPEDTAVYYCAARSRLRYLYDYWGHGTQVTVSS	high polyreactivity
QVQLVESGGGLVQAGGSLRLSCAASGLISGDYAMGWYRQAPGKERELVARITSGDSTNYADSVKGRFTISRDNAKNTVYLQMNSLKPEDTAVYYCAAKRYVFQNDYWGQGTQVTVSS	low polyreactivity
QVQHVESGGGLVQAGGSLRLSCAASGSTFYGYAMGWYRQAPGKERELVARISSSSGRTYYADSVKGRFTISRDNAKNTVYLQMNSLKPEDTAVFYCAARFLWSVFGRKGGYWGQGTQVTVSS	low polyreactivity
QVQLVESGGGLVQAGGSLRLSWAASGFIFDPNAMGWYRQAPGKERDLVAAISSSGGRTYYADSVKGRFTISRDNAKNTVYLQMNSLKPEDTAVYYCATDTSVQGQEYDYWGQGTQVTVSS	low polyreactivity
QVQLVESGGGLVQAGGSLRLSCAASGRTFRYYAMGWYRQAPGKERELVAAIDTSSGSTYYADSVKGRFTISRDNAKNTVYLQMKSLKPEDTAVYYCNATWWIPLFYDYWGQGTQVTVSS	low polyreactivity
